Legend:
Recombinant human GM-CSF [1] = molecular target: T1, Recombinant human GM-CSF (human, UniProt P04141 18-144, biotinylated for the SPR assay (sites not given)); assay: surface plasmon resonance analysis, monovalent affinity; format not described
T1 construct: Biotinylated and immobilized on a streptavidin CM5 sensor chip in the SPR assay; used in solution at 0.5 ng/ml in the TF-1 proliferation assay (the species is not restated there); also called hGM-CSF; Granulocyte Macrophage-Colony Stimulating Factor
T1 sequence (P04141 18-144 limits assumed): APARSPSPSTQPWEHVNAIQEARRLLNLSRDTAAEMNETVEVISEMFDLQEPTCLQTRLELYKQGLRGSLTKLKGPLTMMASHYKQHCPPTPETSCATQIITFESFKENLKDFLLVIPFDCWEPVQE

Recombinant human GM-CSF [2] = molecular target: T1, Recombinant human GM-CSF; assay: cell-based or functional assay

Kd (Recombinant human GM-CSF [1]): ~0.01 nM | EC50 of inhibition of GM-CSF-dependent proliferation of a human TF-1 leukemia cell line (0.5 ng/ml GM-CSF) (Recombinant human GM-CSF [2]): 0.03 nM
B1: chimeric 19/2 antibody (antibody, V domains shown)
VH: EVQLQQSGPELVKPGASVKISCKASGYTFTDYNIHWVKQSHGKSLDWIGYIAPYSGGTGYNQEFKNRATLTVDKSSSTAYMELRSLTSDDSAVYYCARRDRFPYYFDYWGQGTTLRVSS
VL: DIVMIQSQKFVSTSVGDRVNITCKASQNVGSNVAWLQQKPGQSPKTLIYSASYRSGRVPDRFTGSGSGTDFILTITTVQSEDLAEYFCQQFNRSPLTFGSGTKLELK

From patent publication US20080171038A1 (KALOBIOS PHARMACEUTICALS, published 2008)
